Data published in publication PMC4376459, “CXCR3 antagonist VUF10085 binds to an intrahelical site distinct from that of the broad spectrum antagonist TAK-779” (British Journal of Pharmacology, 2015).

Biological target: T1, CXCR3 Y271A (Homo sapiens, UniProt P49682, Y271A)
T1 construct: expressed in transfected cells; host or cells: murine pre-B cell line L1.2, transient transfection
T1 sequence (P49682 1-368 Y271A): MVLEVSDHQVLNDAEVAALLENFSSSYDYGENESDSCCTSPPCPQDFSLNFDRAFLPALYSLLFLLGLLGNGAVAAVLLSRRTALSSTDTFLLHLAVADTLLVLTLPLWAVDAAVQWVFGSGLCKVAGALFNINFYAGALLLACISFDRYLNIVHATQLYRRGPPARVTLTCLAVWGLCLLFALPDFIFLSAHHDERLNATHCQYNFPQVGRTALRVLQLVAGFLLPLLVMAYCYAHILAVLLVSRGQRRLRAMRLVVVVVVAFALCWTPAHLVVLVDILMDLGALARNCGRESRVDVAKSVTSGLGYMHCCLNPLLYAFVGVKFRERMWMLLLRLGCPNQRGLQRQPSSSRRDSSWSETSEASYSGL
Experiment: Whole-cell 125I-CXCL11 binding assay, L1.2 transfectants
Settings: maximum concentration of CXCL11
Description: A previously described pcDNA3 plasmid containing human wild type (WT) CXCR3 cDNA with an HA epitope tag encoded at the N terminus (Meiser et al., [2008]) was used as a template for the generation of point mutants by PCR using the QuikChange II site-directed mutagenesis kit (Stratagene, Amsterdam, the Netherlands). All constructs were verified by DNA sequencing (Eurofins MWG Operon, Ebersberg, Germany) before use. L1.2 cells were transiently transfected by electroporation with 1 μg of vector DNA/10^6 cells at 330V, 975μF and incubated overnight in medium supplemented with 10 mM of sodium butyrate to enhance gene expression.
Whole-cell binding assays on transiently transfected L1.2 cells were performed as described previously (Vaidehi et al., [2009]) using 0.1 nM ^125I-CXCL11 (Perkin Elmer) and increasing concentrations of unlabeled CXCL11 or antagonist. Cell-associated radioactivity was counted in a Canberra Packard Cobra 5010 gamma counter (Canberra Packard, Pangebourne, UK). Curve fitting and subsequent data analysis was carried out using the program PRISM (GraphPad Software, Inc., San Diego, CA, USA) and IC50 values were obtained by non-linear regression analysis. In all experiments, each data point was assayed in duplicate, with each individual experiment repeated three times. Background binding levels obtained in the presence of a 1000–3000 molar excess of unlabelled chemokine were subtracted from each data point and data are presented as the percentage of counts obtained in the absence of competing ligand. KD values and the number of binding sites per cell were calculated from homologous binding curves prepared in Graph Pad Prism (La Jolla, CA, USA) as previously described (Nedjai et al., [2011]).

displacement of 125I-CXCL11 by unlabelled CXCL11: unable to displace 50%
Substance: CXCL11: recombinant human chemokine, CXCR3 agonist, purchased from PeproTech
